Molecular target: the molecule itself
Assay: non-reducing SDS-PAGE

Protein | stoichiometry N
VapC toxin from Leptospira interrogans serovar Copenhageni (LIC12660), 6xHis-tagged, refolded by hig (enzyme, also called pressurized VapC) MYLLDTNICIFLIKKKNATLLENLKKKLNKDLFVSSLTVAELEFGIQKSEFKEKNKVALIEFLTIFNILSFSDKDAESYGIIRADLERKGNVIGSIDMLLAAQAIANNYIFVTNNTKEFKRIKALKIENWTQ | 2
VapC toxin from Leptospira interrogans serovar Copenhageni (LIC12660), non-tagged, co-expressed with VapB (enzyme, Translated from the bicistronic mRNA under a single promoter; also called non-tagged VapC) MYLLDTNICIFLIKKKNATLLENLKKKLNKDLFVSSLTVAELEFGIQKSEFKEKNKVALIEFLTIFNILSFSDKDAESYGIIRADLERKGNVIGSIDMLLAAQAIANNYIFVTNNTKEFKRIKALKIENWTQ | 2

Reference: PMC4105405, “VapC from the Leptospiral VapBC Toxin-Antitoxin Module Displays Ribonuclease Activity on the Initiator tRNA” (PLoS ONE, 2014)
